The target of this test is T1, interleukin-23 receptor (IL-23R), Q5VWK5.
T1 chain: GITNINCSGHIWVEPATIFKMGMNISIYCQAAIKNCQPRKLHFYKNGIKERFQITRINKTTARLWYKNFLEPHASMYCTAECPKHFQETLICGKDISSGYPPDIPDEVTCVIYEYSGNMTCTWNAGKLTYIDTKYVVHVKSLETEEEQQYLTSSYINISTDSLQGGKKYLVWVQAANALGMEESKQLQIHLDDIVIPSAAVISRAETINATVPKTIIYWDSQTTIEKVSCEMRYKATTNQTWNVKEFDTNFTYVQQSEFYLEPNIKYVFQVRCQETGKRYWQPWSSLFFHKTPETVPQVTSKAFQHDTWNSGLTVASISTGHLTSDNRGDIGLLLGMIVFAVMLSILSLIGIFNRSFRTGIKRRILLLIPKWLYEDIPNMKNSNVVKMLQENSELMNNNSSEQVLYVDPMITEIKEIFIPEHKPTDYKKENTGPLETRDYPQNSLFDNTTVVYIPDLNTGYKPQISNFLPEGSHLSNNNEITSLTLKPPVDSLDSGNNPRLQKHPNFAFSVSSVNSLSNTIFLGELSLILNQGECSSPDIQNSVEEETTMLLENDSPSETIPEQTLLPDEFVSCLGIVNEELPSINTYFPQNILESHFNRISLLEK
Briefly: cell-based or functional assay.

Starred links: 1 amine or outer side, 2 acyl side, 3 side chain; linkers in the order of their positions; H or OH if unused. Positions of bridges follow the written chain, without caps; N, C: chain ends. Non-standard residues stand in square brackets, D forms with d. No end group written: not given here. X1 = 3‑(7-(3-acetamidophenyl)-1H-indol-3-yl)‑2‑aminopropanoic acid, CC(=O)Nc1cccc(-c2cccc3c(CC(N[*:1])C(=O)[*:2])c[nH]c23)c1; AEF(G) = 2-amino-3-(4-(2-guanidinoethoxy)phenyl)propanoic acid, N=C(N)NCCOc1ccc(C[C@H](N[*:1])C(=O)[*:2])cc1; X10 = 2‑amino‑3‑(4-(2-guanidinoethoxy)phenyl)propanoic acid, N=C(N)NCCOc1ccc(CC(N[*:1])C(=O)[*:2])cc1; Trp(7-(3-AcNH-Ph)) = CC(=O)Nc1cccc(-c2cccc3c(C[C@H](N)C(=O)O)c[nH]c23)c1; N‑methyl‑N‑acetyllysine = N-methyl-N-acetyllysine; Phe(4-OMe) = COc1ccc(C[C@H](N[*:1])C(=O)[*:2])cc1; Trp(7-Br) = N[C@@H](Cc1c[nH]c2c(Br)cccc12)C(=O)O; 2Nal(6-OH) = N[C@@H](Cc1ccc2cc(O)ccc2c1)C(=O)O; Trp(7-Me) = Cc1cccc2c(C[C@H](N)C(=O)O)c[nH]c12; dLys(Me3) = C[N+](C)(C)CCCC[C@@H](N)C(=O)O; AEF = NCCOc1ccc(C[C@H](N)C(=O)O)cc1; 3Pal = N[C@@H](Cc1cccnc1)C(=O)O; NMeK = CN[C@@H](CCCCN)C(=O)O; Pen = CC(C)(S)[C@H](N)C(=O)O; αMeK = C[C@](N)(CCCCN)C(=O)O; αMeC = C[C@](N)(CS)C(=O)O; lipid = not defined here; Thp = NC1(C(=O)O)CCOCC1; PEG = not defined here; Sar = CNCC(=O)O

For [Pen]NT[Trp(7-Br)]K(Ac)[Pen][AEF][2Nal(6-OH)][Thp]EN[3Pal][Sar] (not fully specified (bridges); ends and bridges not checked) [SEQ ID NO: 313], the IL23R Reporter Assay IC50 is under 10 nM.
R[Pen]NT[Trp(7-Me)]K(Ac)[Pen][AEF][2Nal(6-OH)][Thp]EN[3Pal][NMeK](lipid) (disulfide 2-7 (inferred); not fully specified; ends not checked) [SEQ ID NO: 279] displayed an IL23R Reporter Assay IC50 of over 100 nM and a PBMC pSTAT3 IC50 of under 1 nM.
The matching figures for R[Pen]NT[X1]K(Ac)[Pen][X10][2‑amino‑3‑(6-hydroxynaphthalen-2-yl)propanoic acid][Thp]EN[3Pal][Sar] (ends and bridges not checked) [SEQ ID NO: 35]: under 10 nM and under 0.1 nM.
In the case of [Pen]NT[Trp(7-Me)]K(Ac)[Pen][AEF][2Nal(6-OH)][Thp]EN[3Pal][Sar] (ends and bridges not checked) [SEQ ID NO: 3], the IL23R Reporter Assay IC50 was under 10 nM.
In the case of [Pen]NT[2‑amino‑3‑(benzo(b)thiophen-3-yl)propanoic acid]K(Ac)[Pen][AEF][2Nal(6-OH)][Thp]EN[3Pal][Sar] (not fully specified (bridges); ends and bridges not checked) [SEQ ID NO: 334], the IL23R Reporter Assay IC50 is under 10 nM.
As for [Pen]K(lipid)T[Trp(7-Me)]K(Ac)[Pen][2‑amino‑3‑(4-(2-aminoethoxy)phenyl)propanoic acid][2‑amino‑3‑(6-hydroxynaphthalen-2-yl)propanoic acid][Thp]EN[3Pal][Sar] (disulfide 1-6 (inferred); ends not checked; also: K2: lipidated lysine) [SEQ ID NO: 276], the IL23R Reporter Assay IC50 is over 100 nM and the PBMC pSTAT3 IC50 was under 1 nM.

B1: SEQ ID NO: 307 (peptide)
peptide: [Pen]NT[Trp(7-Me)]K(lipid)[Pen][Phe(4-OMe)][2Nal(6-OH)][αMeK]LN[3Pal][Sar]
modifications: not fully specified (bridges); ends and bridges not checked; also: lipid group unspecified
In the case of B1, the IL23R Reporter Assay IC50 is under 10 nM.
On to [dLys(Me3)][Pen]NT[Trp(7-(3-AcNH-Ph))]K(Ac)[Pen][AEF(G)][2Nal(6-OH)][Thp]EN[3Pal][Sar] (ends and bridges not checked) [SEQ ID NO: 33], for which the IL23R Reporter Assay IC50 was under 10 nM and the PBMC pSTAT3 IC50 was under 10 pM.
In turn, [Pen]NT[Trp(7-Me)]K(Ac)[Pen][2‑amino‑3‑(4-(2-aminoethoxy)phenyl)propanoic acid][2‑amino‑3‑(6-hydroxynaphthalen-2-yl)propanoic acid][Thp]K(Ac)N[3Pal][Sar]K(lipid) (disulfide 1-6 (inferred); ends not checked; also: K14: lipidated lysine) [SEQ ID NO: 275] returned an IL23R Reporter Assay IC50 of over 100 nM and a PBMC pSTAT3 IC50 of under 1 nM.

B2: SEQ ID NO: 305 (peptide)
peptide: [Pen]NT[Trp(7-Me)]K(lipid)[Pen]F[2Nal(6-OH)][αMeK]LN[3Pal][Sar]
modifications: not fully specified (bridges); ends and bridges not checked; also: lipid group unspecified
As to B2, the IL23R Reporter Assay IC50 is under 10 nM.

B3: SEQ ID NO: 326 (peptide)
peptide: [Pen]ET[Trp(7-Me)]K(PEG)[Pen][AEF][2Nal(6-OH)][Thp]EN[3Pal][Sar]
modifications: not fully specified (bridges); ends and bridges not checked; also: PEG chain on Lys unspecified
Consider B3, for which the IL23R Reporter Assay IC50 is under 10 nM.
Regarding R[Pen]NT[Trp(7-Me)]K(Ac)[Pen][AEF(G)][2Nal(6-OH)][Thp]EN[3Pal][Sar] (ends and bridges not checked) [SEQ ID NO: 32], the IL23R Reporter Assay IC50 was under 10 nM and the PBMC pSTAT3 IC50 is under 10 pM.
In turn, [Pen]LT[Trp(7-Me)]K(Ac)[Pen]F[2Nal(6-OH)][αMeK]LN[3Pal][Sar] (disulfide 1-6 (inferred); ends not checked) [SEQ ID NO: 304] yielded an IL23R Reporter Assay IC50 of under 10 nM.

B4: SEQ ID NO: 303 (peptide)
peptide: [Pen]LT[Trp(7-Me)]K(lipid)[Pen]F[2Nal(6-OH)][αMeK]LN[3Pal][Sar]
modifications: disulfide 1-6 (inferred); ends not checked; also: Lys5 lipidated, lipid not given here
The molecule B4 came in with an IL23R Reporter Assay IC50 of under 10 nM.
R[Pen]NT[Trp(7-Br)]K(Ac)[Pen][AEF][2Nal(6-OH)][Thp]EN[3Pal][Sar] (not fully specified (bridges); ends and bridges not checked) [SEQ ID NO: 312] came in with an IL23R Reporter Assay IC50 of under 10 nM.
For the molecule [N‑amino‑O‑(2-(2-(methylamino)ethoxy)ethyl)‑D‑serine][Pen]NT[Trp(7-Me)][N‑methyl‑N‑acetyllysine][Pen][AEF][2Nal(6-OH)][Thp]DN[3Pal][Sar] (disulfide 2-7 (inferred); ends not checked) [SEQ ID NO: 290], the IL23R Reporter Assay IC50 was under 10 nM and the PBMC pSTAT3 IC50 was under 0.1 nM.
The molecule [Pen]ET[Trp(7-Me)]K(Ac)[Pen][AEF][2Nal(6-OH)][Thp]EN[3Pal][Sar] (not fully specified (bridges); ends and bridges not checked) [SEQ ID NO: 331] returned an IL23R Reporter Assay IC50 of under 10 nM.
For [Pen]NT[Trp(7-Me)]K(Ac)[Pen][Phe(4-OMe)][2Nal(6-OH)][αMeK]LN[3Pal][Sar] (not fully specified (bridges); ends and bridges not checked) [SEQ ID NO: 308], the IL23R Reporter Assay IC50 was under 10 nM.
Turning to [Pen]NT[Trp(7-Me)]K(Ac)[Pen][2‑amino‑3‑(4-(2-aminoethoxy)phenyl)propanoic acid][2‑amino‑3‑(6-hydroxynaphthalen-2-yl)propanoic acid][Thp]K(Ac)N[3Pal][Sar]K(lipid) (disulfide 1-6 (inferred); ends not checked; also: K14: lipidated lysine) [SEQ ID NO: 278], the IL23R Reporter Assay IC50 was over 100 nM and the PBMC pSTAT3 IC50 is under 1 nM.

B5: SEQ ID NO: 222 (peptide)
peptide: R[Pen]NT[Trp(7-Me)]K(Ac)[Pen][2‑amino‑3‑(4-(2-aminoethoxy)phenyl)propanoic acid][2‑amino‑3‑(6-hydroxynaphthalen-2-yl)propanoic acid][Thp]K(Ac)N[3Pal][Sar]K(lipid)
modifications: disulfide 2-7 (inferred); ends not checked; also: Lys15 lipidated, lipid not given here
B5 gave an IL23R Reporter Assay IC50 of over 100 nM and a PBMC pSTAT3 IC50 of over 1 nM.
Take [dLys(Me3)][Pen]NT[X1]K(Ac)[Pen][5‑(4-(2-amino-2-carboxyethyl)phenoxy)‑N,N,N‑trimethylpentan‑1‑aminium][2‑amino‑3‑(6-hydroxynaphthalen-2-yl)propanoic acid][Thp]EN[3Pal][Sar] (ends and bridges not checked) [SEQ ID NO: 37]: the IL23R Reporter Assay IC50 is under 10 nM.
For the molecule R[Pen]NT[X1]K(Ac)[Pen][5‑(4-(2-amino-2-carboxyethyl)phenoxy)‑N,N,N‑trimethylpentan‑1‑aminium][2‑amino‑3‑(6-hydroxynaphthalen-2-yl)propanoic acid][Thp]EN[3Pal][Sar] (not fully specified (bridges); ends and bridges not checked) [SEQ ID NO: 39], the IL23R Reporter Assay IC50 was under 10 nM.
[Pen]NT[Trp(7-Me)]K(Ac)[Pen][Phe(4-OMe)][2Nal(6-OH)][αMeK]LN[3Pal][Sar] (not fully specified (bridges); ends and bridges not checked) [SEQ ID NO: 306] displayed an IL23R Reporter Assay IC50 of under 10 nM.
Still for that read-out and setting: under RCNT[Trp(7-Me)]K(Ac)[αMeC][AEF][2Nal(6-OH)][Thp]EN[3Pal][Sar] (ends and bridges not checked) [SEQ ID NO: 4] stands under 10 nM.
